Source: patent US20190002889

Tests used:
[1] = test system: T1, RspWYL1 (WP_046441785.1, Ruminococcus sp. N15.MGS-57 WYL1 accessory protein)
T1 sequence: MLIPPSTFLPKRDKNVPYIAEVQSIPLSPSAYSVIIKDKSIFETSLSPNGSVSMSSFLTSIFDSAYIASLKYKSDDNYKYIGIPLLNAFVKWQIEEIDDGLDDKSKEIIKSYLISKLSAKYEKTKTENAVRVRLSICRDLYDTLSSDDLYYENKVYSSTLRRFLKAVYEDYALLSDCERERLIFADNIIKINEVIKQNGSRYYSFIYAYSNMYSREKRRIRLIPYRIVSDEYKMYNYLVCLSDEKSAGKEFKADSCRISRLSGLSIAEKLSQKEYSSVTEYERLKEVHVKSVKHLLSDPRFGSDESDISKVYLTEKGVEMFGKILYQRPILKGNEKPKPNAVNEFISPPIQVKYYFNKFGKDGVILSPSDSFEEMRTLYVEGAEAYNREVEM

[2] = biological target: T2, RspWYL1 (WP_046441785.1, Ruminococcus sp. N15.MGS-57 WYL1 accessory protein)
T2 chain: T1 sequence

Bergeyella zoohelcum Cas13b (BzCas13b) was tested, and the “in vitro ssRNA cleavage activity (denaturing gel)” value [1] was “RspWYL1 enhanced the activity of BzCas13b”.

B1: EsCas13d (WP_005358205.1, Eubacterium siraeum DSM 15702 Type VI-D CRISPR-Cas effector) (protein)
chain: MGKKIHARDLREQRKTDRTEKFADQNKKREAERAVPKKDAAVSVKSVSSVSSKKDNVTKSMAKAAGVKSVFAVGNTVYMTSFGRGNDAVLEQKIVDTSHEPLNIDDPAYQLNVVTMNGYSVTGHRGETVSAVTDNPLRRFNGRKKDEPEQSVPTDMLCLKPTLEKKFFGKEFDDNIHIQLIYNILDIEKILAVYSTNAIYALNNMSADENIENSDFFMKRTTDETFDDFEKKKESTNSREKADFDAFEKFIGNYRLAYFADAFYVNKKNPKGKAKNVLREDKELYSVLTLIGKLRHWCVHSEEGRAEFWLYKLDELKDDFKNVLDVVYNRPVEEINNRFIENNKVNIQILGSVYKNTDIAELVRSYYEFLITKKYKNMGFSIKKLRESMLEGKGYADKEYDSVRNKLYQMTDFILYTGYINEDSDRADDLVNTLRSSLKEDDKTTVYCKEADYLWKKYRESIREVADALDGDNIKKLSKSNIEIQEDKLRKCFISYADSVSEFTKLIYLLTRFLSGKEINDLVTTLINKFDNIRSFLEIMDELGLDRTFTAEYSFFEGSTKYLAELVELNSFVKSCSFDINAKRTMYRDALDILGIESDKTEEDIEKMIDNILQIDANGDKKLKKNNGLRNFIASNVIDSNRFKYLVRYGNPKKIRETAKCKPAVRFVLNEIPDAQIERYYEACCPKNTALCSANKRREKLADMIAEIKFENFSDAGNYQKANVTSRTSEAEIKRKNQAIIRLYLTVMYIMLKNLVNVNARYVIAFHCVERDTKLYAESGLEVGNIEKNKTNLTMAVMGVKLENGIIKTEFDKSFAENAANRYLRNARWYKLILDNLKKSERAVVNEFRNTVCHLNAIRNININIKEIKEVENYFALYHYLIQKHLENRFADKKVERDTGDFISKLEEHKTYCKDFVKAYCTPFGYNLVRYKNLTIDGLFDKNYPGKDDSDEQK
In the case of B1, the “targeted and collateral ssRNA nuclease activities (in vitro ssRNA cleavage assay, denaturing gel)” value [2] is reported as “RspWYL1 enhanced the targeted and collateral ssRNA nuclease activities of EsCas13d to a similar extent as observed for RspCas13d”.

B2: RspCas13d (WP_046441786.1, Ruminococcus sp. N15.MGS-57 Type VI-D CRISPR-Cas effector) (protein)
chain: MAKKNKMKPRELREAQKKARQLKAAEINNNAAPAIAAMPAAEVIAPVAEKKKSSVKAAGMKSILVSKNKMYITSFGKGNSAVLEYEVDNNDYNQTQLSSKGSSNIELRGVNEVNITFSSKHGFESGVEINTSNPTHRSGESSPVRGDMLGLKSELEKRFFGKTFDDNIHIQLIYNILDIEKILAVYVTNIVYALNNMLSIKDSESYDDFMGYLSARNTYEVFTHPDKSNLSDKAKGNIKKSFSTFNDLLKTKRLGYFGLEEPKTKDTRVSQAYKKRVYHMLAIVGQIRQSVFHDKSSKLDEDLYSFIDIIDSEYRETLDYLVDERFDSINKGFIQGNKVNISLLIDMMKGYEADDIIRLYYDFIVLKSQKNLGFSIKKLREKMLDEYGFRFKDKQYDSVRSKMYKLMDFLLFCNYYRNDVVAGEALVRKLRFSMTDDEKEGIYADEASKLWGKFRNDFENIADHMNGDVIKELGKADMDFDEKILDSEKKNASDLLYFSKMIYMLTYFLDGKEINDLLTTLISKFDNIKEFLKIMKSSAVDVECELTAGYKLFNDSQRITNELFIVKNIASMRKPASSAKLTMFRDALTILGIDDNITDDRISEILKLKEKGKGIHGLRNFITNNVIESSRFVYLIKYANAQKIRKVAKNEKVVMFVLGGIPDTQIERYYKSCVEFPDMNSSLEVKRSELARMIKNISFDDFKNVKQQAKGRENVAKERAKAVIGLYLTVMYLLVKNLVNVNARYVIAIHCLERDFGLYKEIIPELASKNLKNDYRILSQTLCELCDKSPNLFLKKNERLRKCVEVDINNADSSMTRKYRNCIAHLTVVRELKEYIGDIRTVDSYFSIYHYVMQRCITKRENDTKQEEKIKYEDDLLKNHGYTKDFVKALNSPFGYNIPRFKNLSIEQLFDRNEYLTEK
For B2, the “targeted and collateral ssRNA cleavage activity (in vitro ssRNA cleavage assay, denaturing gel)” value [2] was “RspWYL1 increases both the targeted and collateral ssRNA cleavage activity of RspCas13d in a dose-dependent manner, with a molar excess of RspWYL1 yielding the greatest increase in Cas13d activity”.
